# B1: r11_951_TrROS_Hall (parent)
# chain: KKKYVIKVYFEDTGKEVEIEAESKEEALEAAKRLAEELGLKIKKVEIYP
# Variants of: B1
# Assay: folding stability dG (cDNA display proteolysis); higher = more stable
# Conditions: PBS, room temperature
row,Variant,folding stability dG
1,KKKYVIKVSFEDTGKEVEIEAESKEEALEAAKRLAEELGLKIKKVEIYP [Y9S],4.16 kcal/mol
2,KKKYVIKVEFEDTGKEVEIEAESKEEALEAAKRLAEELGLKIKKVEIYP [Y9E],4.28 kcal/mol
3,KKKYVIKVLFEDTGKEVEIEAESKEEALEAAKRLAEELGLKIKKVEIYP [Y9L],4.26 kcal/mol
4,KKKYVIKVKFEDTGKEVEIEAESKEEALEAAKRLAEELGLKIKKVEIYP [Y9K],3.98 kcal/mol
5,KKKYVIKVFFEDTGKEVEIEAESKEEALEAAKRLAEELGLKIKKVEIYP [Y9F],4.25 kcal/mol
6,KKKYVIKVDFEDTGKEVEIEAESKEEALEAAKRLAEELGLKIKKVEIYP [Y9D],3.41 kcal/mol
7,KKKYVIKVTFEDTGKEVEIEAESKEEALEAAKRLAEELGLKIKKVEIYP [Y9T],4.22 kcal/mol
8,KKKYVIKVRFEDTGKEVEIEAESKEEALEAAKRLAEELGLKIKKVEIYP [Y9R],4.14 kcal/mol
9,KKKYVIKVAFEDTGKEVEIEAESKEEALEAAKRLAEELGLKIKKVEIYP [Y9A],3.91 kcal/mol
10,KKKYVIKVHFEDTGKEVEIEAESKEEALEAAKRLAEELGLKIKKVEIYP [Y9H],4.26 kcal/mol
11,KKKYVIKVNFEDTGKEVEIEAESKEEALEAAKRLAEELGLKIKKVEIYP [Y9N],3.87 kcal/mol
12,KKKYVIKVQFEDTGKEVEIEAESKEEALEAAKRLAEELGLKIKKVEIYP [Y9Q],4.09 kcal/mol
13,KKKYVIKVVFEDTGKEVEIEAESKEEALEAAKRLAEELGLKIKKVEIYP [Y9V],4.3 kcal/mol
14,KKKYVIKVIFEDTGKEVEIEAESKEEALEAAKRLAEELGLKIKKVEIYP [Y9I],4.35 kcal/mol
15,KKKYVIKVMFEDTGKEVEIEAESKEEALEAAKRLAEELGLKIKKVEIYP [Y9M],4.4 kcal/mol
16,KKKYVIKVCFEDTGKEVEIEAESKEEALEAAKRLAEELGLKIKKVEIYP [Y9C],3.95 kcal/mol
17,KKKYVIKVWFEDTGKEVEIEAESKEEALEAAKRLAEELGLKIKKVEIYP [Y9W],4.86 kcal/mol
18,KKKYVIKVPFEDTGKEVEIEAESKEEALEAAKRLAEELGLKIKKVEIYP [Y9P],1.42 kcal/mol
19,KKKYVIKVGFEDTGKEVEIEAESKEEALEAAKRLAEELGLKIKKVEIYP [Y9G],3.74 kcal/mol
20,KKKYVIKVYFEDCGKEVEIEAESKEEALEAAKRLAEELGLKIKKVEIYP [T13C],3.6 kcal/mol
21,KKKYVIKVYFEDRGKEVEIEAESKEEALEAAKRLAEELGLKIKKVEIYP [T13R],4.66 kcal/mol
22,KKKYVIKVYFEDKGKEVEIEAESKEEALEAAKRLAEELGLKIKKVEIYP [T13K],4.48 kcal/mol

row,Variant,folding stability dG
1,KKKYVIKVYFEDGGKEVEIEAESKEEALEAAKRLAEELGLKIKKVEIYP [T13G],4.52 kcal/mol
2,KKKYVIKVYFEDAGKEVEIEAESKEEALEAAKRLAEELGLKIKKVEIYP [T13A],4.42 kcal/mol
3,KKKYVIKVYFEDMGKEVEIEAESKEEALEAAKRLAEELGLKIKKVEIYP [T13M],4.35 kcal/mol
4,KKKYVIKVYFEDIGKEVEIEAESKEEALEAAKRLAEELGLKIKKVEIYP [T13I],4.41 kcal/mol
5,KKKYVIKVYFEDYGKEVEIEAESKEEALEAAKRLAEELGLKIKKVEIYP [T13Y],4.47 kcal/mol
6,KKKYVIKVYFEDEGKEVEIEAESKEEALEAAKRLAEELGLKIKKVEIYP [T13E],4.4 kcal/mol
7,KKKYVIKVYFEDPGKEVEIEAESKEEALEAAKRLAEELGLKIKKVEIYP [T13P],4.48 kcal/mol
8,KKKYVIKVYFEDDGKEVEIEAESKEEALEAAKRLAEELGLKIKKVEIYP [T13D],4.11 kcal/mol
9,KKKYVIKVYFEDHGKEVEIEAESKEEALEAAKRLAEELGLKIKKVEIYP [T13H],4.33 kcal/mol
10,KKKYVIKVYFEDSGKEVEIEAESKEEALEAAKRLAEELGLKIKKVEIYP [T13S],4.55 kcal/mol
11,KKKYVIKVYFEDVGKEVEIEAESKEEALEAAKRLAEELGLKIKKVEIYP [T13V],4.4 kcal/mol
12,KKKYVIKVYFEDFGKEVEIEAESKEEALEAAKRLAEELGLKIKKVEIYP [T13F],4.36 kcal/mol
13,KKKYVIKVYFEDQGKEVEIEAESKEEALEAAKRLAEELGLKIKKVEIYP [T13Q],4.32 kcal/mol
14,KKKYVIKVYFEDLGKEVEIEAESKEEALEAAKRLAEELGLKIKKVEIYP [T13L],4.29 kcal/mol
15,KKKYVIKVYFEDWGKEVEIEAESKEEALEAAKRLAEELGLKIKKVEIYP [T13W],4.28 kcal/mol
16,KKKYVIKVYFEDNGKEVEIEAESKEEALEAAKRLAEELGLKIKKVEIYP [T13N],4.58 kcal/mol
17,KKKYVIKYYFEDTGKEVEIEAESKEEALEAAKRLAEELGLKIKKVEIYP [V8Y],4.22 kcal/mol
18,KKKYVIKWYFEDTGKEVEIEAESKEEALEAAKRLAEELGLKIKKVEIYP [V8W],4.03 kcal/mol
19,KKKYVIKRYFEDTGKEVEIEAESKEEALEAAKRLAEELGLKIKKVEIYP [V8R],0.173 kcal/mol
20,KKKYVIKTYFEDTGKEVEIEAESKEEALEAAKRLAEELGLKIKKVEIYP [V8T],2.91 kcal/mol
21,KKKYVIKSYFEDTGKEVEIEAESKEEALEAAKRLAEELGLKIKKVEIYP [V8S],1.87 kcal/mol
22,KKKYVIKVYFKDTGKEVEIEAESKEEALEAAKRLAEELGLKIKKVEIYP [E11K],4.64 kcal/mol

row,Variant,folding stability dG
1,KKKYVIKVYFQDTGKEVEIEAESKEEALEAAKRLAEELGLKIKKVEIYP [E11Q],4.79 kcal/mol
2,KKKYVIKVYFLDTGKEVEIEAESKEEALEAAKRLAEELGLKIKKVEIYP [E11L],4.92 kcal/mol
3,KKKYVIKVYFMDTGKEVEIEAESKEEALEAAKRLAEELGLKIKKVEIYP [E11M],4.8 kcal/mol
4,KKKYVIKVYFYDTGKEVEIEAESKEEALEAAKRLAEELGLKIKKVEIYP [E11Y],4.83 kcal/mol
5,KKKYVIKVYFRDTGKEVEIEAESKEEALEAAKRLAEELGLKIKKVEIYP [E11R],4.82 kcal/mol
6,KKKYVIKVYFGDTGKEVEIEAESKEEALEAAKRLAEELGLKIKKVEIYP [E11G],4.49 kcal/mol
7,KKKYVIKVYFNDTGKEVEIEAESKEEALEAAKRLAEELGLKIKKVEIYP [E11N],4.67 kcal/mol
8,KKKYVIKVYFDDTGKEVEIEAESKEEALEAAKRLAEELGLKIKKVEIYP [E11D],4.5 kcal/mol
9,KKKYVIKVYFVDTGKEVEIEAESKEEALEAAKRLAEELGLKIKKVEIYP [E11V],4.83 kcal/mol
10,KKKYVIKVYFPDTGKEVEIEAESKEEALEAAKRLAEELGLKIKKVEIYP [E11P],3.62 kcal/mol
11,KKKYVIKVYFFDTGKEVEIEAESKEEALEAAKRLAEELGLKIKKVEIYP [E11F],4.94 kcal/mol
12,KKKYVIKVYFIDTGKEVEIEAESKEEALEAAKRLAEELGLKIKKVEIYP [E11I],4.86 kcal/mol
13,KKKYVIKVYFHDTGKEVEIEAESKEEALEAAKRLAEELGLKIKKVEIYP [E11H],4.83 kcal/mol
14,KKKYVIKVYFCDTGKEVEIEAESKEEALEAAKRLAEELGLKIKKVEIYP [E11C],4.63 kcal/mol
15,KKKYVIKVYFSDTGKEVEIEAESKEEALEAAKRLAEELGLKIKKVEIYP [E11S],4.63 kcal/mol
16,KKKYVIKVYFADTGKEVEIEAESKEEALEAAKRLAEELGLKIKKVEIYP [E11A],4.58 kcal/mol
17,KKKYVIKVYFTDTGKEVEIEAESKEEALEAAKRLAEELGLKIKKVEIYP [E11T],4.48 kcal/mol
18,KKKYVIKVYFEDTEKEVEIEAESKEEALEAAKRLAEELGLKIKKVEIYP [G14E],4.3 kcal/mol
19,KKKYVIKVYFEDTAKEVEIEAESKEEALEAAKRLAEELGLKIKKVEIYP [G14A],4.34 kcal/mol
20,KKKYVIKVYFEDTIKEVEIEAESKEEALEAAKRLAEELGLKIKKVEIYP [G14I],4.58 kcal/mol
21,KKKYVIKVYFEDTDKEVEIEAESKEEALEAAKRLAEELGLKIKKVEIYP [G14D],4.37 kcal/mol
22,KKKYVIKVYFEDTCKEVEIEAESKEEALEAAKRLAEELGLKIKKVEIYP [G14C],4.36 kcal/mol

row,Variant,folding stability dG
1,KKKYVIKVYFEDTFKEVEIEAESKEEALEAAKRLAEELGLKIKKVEIYP [G14F],4.73 kcal/mol
2,KKKYVIKVYFEDTHKEVEIEAESKEEALEAAKRLAEELGLKIKKVEIYP [G14H],4.27 kcal/mol
3,KKKYVIKVYFEETGKEVEIEAESKEEALEAAKRLAEELGLKIKKVEIYP [D12E],4.31 kcal/mol
4,KKKYVIKVYFEFTGKEVEIEAESKEEALEAAKRLAEELGLKIKKVEIYP [D12F],4.64 kcal/mol
5,KKKYVIKVYFELTGKEVEIEAESKEEALEAAKRLAEELGLKIKKVEIYP [D12L],4.59 kcal/mol
6,KKKYVIKVYFEVTGKEVEIEAESKEEALEAAKRLAEELGLKIKKVEIYP [D12V],4.34 kcal/mol
7,KKKYVIKVYFENTGKEVEIEAESKEEALEAAKRLAEELGLKIKKVEIYP [D12N],4.42 kcal/mol
8,KKKYVIKVYFEKTGKEVEIEAESKEEALEAAKRLAEELGLKIKKVEIYP [D12K],4.62 kcal/mol
9,KKKYVIKVYFEYTGKEVEIEAESKEEALEAAKRLAEELGLKIKKVEIYP [D12Y],4.66 kcal/mol
10,KKKYVIKVYFEHTGKEVEIEAESKEEALEAAKRLAEELGLKIKKVEIYP [D12H],4.49 kcal/mol
11,KKKYVIKVYFESTGKEVEIEAESKEEALEAAKRLAEELGLKIKKVEIYP [D12S],4.38 kcal/mol
12,KKKYVIKVYFEQTGKEVEIEAESKEEALEAAKRLAEELGLKIKKVEIYP [D12Q],4.38 kcal/mol
13,KKKYVIKVYFETTGKEVEIEAESKEEALEAAKRLAEELGLKIKKVEIYP [D12T],4.5 kcal/mol
14,KKKYVIKVYFEGTGKEVEIEAESKEEALEAAKRLAEELGLKIKKVEIYP [D12G],4.54 kcal/mol
15,KKKYVIKVYFERTGKEVEIEAESKEEALEAAKRLAEELGLKIKKVEIYP [D12R],4.79 kcal/mol
16,KKKYVIKVYFEITGKEVEIEAESKEEALEAAKRLAEELGLKIKKVEIYP [D12I],4.66 kcal/mol
17,KKKYVIKVYFEMTGKEVEIEAESKEEALEAAKRLAEELGLKIKKVEIYP [D12M],4.55 kcal/mol
18,KKKYVIKVYFECTGKEVEIEAESKEEALEAAKRLAEELGLKIKKVEIYP [D12C],4.38 kcal/mol
19,KKKYVIKVYFEATGKEVEIEAESKEEALEAAKRLAEELGLKIKKVEIYP [D12A],4.41 kcal/mol
20,KKKYVIKVYFEWTGKEVEIEAESKEEALEAAKRLAEELGLKIKKVEIYP [D12W],4.75 kcal/mol
21,KKKYVIKVYFEPTGKEVEIEAESKEEALEAAKRLAEELGLKIKKVEIYP [D12P],4.35 kcal/mol
22,KKKYVIKVYKEDTGKEVEIEAESKEEALEAAKRLAEELGLKIKKVEIYP [F10K],1.65 kcal/mol

row,Variant,folding stability dG
1,KKKYVIKVYYEDTGKEVEIEAESKEEALEAAKRLAEELGLKIKKVEIYP [F10Y],3.94 kcal/mol
2,KKKYVIKVYLEDTGKEVEIEAESKEEALEAAKRLAEELGLKIKKVEIYP [F10L],3.94 kcal/mol
3,KKKYVIKVYMEDTGKEVEIEAESKEEALEAAKRLAEELGLKIKKVEIYP [F10M],3.73 kcal/mol
4,KKKYVIKVYGEDTGKEVEIEAESKEEALEAAKRLAEELGLKIKKVEIYP [F10G],3.16 kcal/mol
5,KKKYVIKVYEEDTGKEVEIEAESKEEALEAAKRLAEELGLKIKKVEIYP [F10E],2.52 kcal/mol
6,KKKYVIKVYSEDTGKEVEIEAESKEEALEAAKRLAEELGLKIKKVEIYP [F10S],3.13 kcal/mol
7,KKKYVIKVYVEDTGKEVEIEAESKEEALEAAKRLAEELGLKIKKVEIYP [F10V],2.98 kcal/mol
8,KKKYVIKVYQEDTGKEVEIEAESKEEALEAAKRLAEELGLKIKKVEIYP [F10Q],2.23 kcal/mol
9,KKKYVIKVYDEDTGKEVEIEAESKEEALEAAKRLAEELGLKIKKVEIYP [F10D],2.86 kcal/mol
10,KKKYVIKVYWEDTGKEVEIEAESKEEALEAAKRLAEELGLKIKKVEIYP [F10W],4.44 kcal/mol
11,KKKYVIKVYHEDTGKEVEIEAESKEEALEAAKRLAEELGLKIKKVEIYP [F10H],2.56 kcal/mol
12,KKKYVIKVYPEDTGKEVEIEAESKEEALEAAKRLAEELGLKIKKVEIYP [F10P],2.07 kcal/mol
13,KKKYVIKVYIEDTGKEVEIEAESKEEALEAAKRLAEELGLKIKKVEIYP [F10I],3.28 kcal/mol
14,KKKYVIKVYNEDTGKEVEIEAESKEEALEAAKRLAEELGLKIKKVEIYP [F10N],2.58 kcal/mol
15,KKKYVIKVYREDTGKEVEIEAESKEEALEAAKRLAEELGLKIKKVEIYP [F10R],1.98 kcal/mol
16,KKKYVIKVYCEDTGKEVEIEAESKEEALEAAKRLAEELGLKIKKVEIYP [F10C],3.67 kcal/mol
17,KKKYVIKVYTEDTGKEVEIEAESKEEALEAAKRLAEELGLKIKKVEIYP [F10T],3.32 kcal/mol
18,KKKYVIKVYAEDTGKEVEIEAESKEEALEAAKRLAEELGLKIKKVEIYP [F10A],2.98 kcal/mol

# From the MegaScale stability set (Tsuboyama et al. 2023)
